Measurements published in US20240043537A1.

Tests used:
[1] = biological target: CD3 (as used for the BIACORE kinetics of Table 11) (UniProt P07766); test: SPR (BIACORE)
CD3 on T-cells = CD3 on T-cells (UniProt P07766); test: cell-based or functional assay
Sequence of CD3 on T-cells (P07766 23-207): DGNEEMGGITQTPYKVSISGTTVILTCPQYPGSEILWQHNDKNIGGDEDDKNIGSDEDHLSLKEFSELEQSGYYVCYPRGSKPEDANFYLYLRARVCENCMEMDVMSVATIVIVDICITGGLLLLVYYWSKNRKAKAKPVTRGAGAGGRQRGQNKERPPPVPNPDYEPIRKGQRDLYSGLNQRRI

Sequence of CD3 (as used for the BIACORE kinetics of Table 11) (P07766 23-126): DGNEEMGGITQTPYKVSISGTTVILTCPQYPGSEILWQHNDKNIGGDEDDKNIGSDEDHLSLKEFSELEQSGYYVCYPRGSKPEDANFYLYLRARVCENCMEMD

Kd [1] | R (KD ratio to DART-A-WT) [1] | R (ka ratio to DART-A-WT) [1] | R (kd ratio to DART-A-WT) [1] | koff [1] | kon [1] | EC50 of cytolysis at 18 hours (CTL assay, Pan-T-cells and MOLM-13, E:T = 5:1) (CD3 on T-cells) | EC50 of cytolysis at 42 hours (CTL assay, Pan-T-cells and MOLM-13, E:T = 5:1) (CD3 on T-cells) | R: ratio of 18 hour EC50 to DART-A-WT (CTL assay, Pan-T-cells and MOLM-13, E:T = 5:1) (CD3 on T-cells) | R: ratio of 42 hour EC50 to DART-A-WT (CTL assay, Pan-T-cells and MOLM-13, E:T = 5:1) (CD3 on T-cells) | Binder | max % CytoTox at 18 hours (CTL assay, Pan-T-cells and MOLM-13, E:T = 5:1) (CD3 on T-cells) | max % CytoTox at 42 hours (CTL assay, Pan-T-cells and MOLM-13, E:T = 5:1) (CD3 on T-cells)
6.91 nM | 0.8 | 2.3 | 1.9 | 0.00784 s⁻¹ | 1.13e+06 M⁻¹ s⁻¹ | 0.069 ng/mL | 0.005 ng/mL | 0.9 | 1.7 | DART-A-M8 (bispecific antibody) chain 1: DFVMTQSPDSLAVSLGERVTMSCKSSQSLLNSGNQKNYLTWYQQKPGQPPKLLIYWASTRESGVPDRFSGSGSGTDFTLTISSLQAEDVAVYYCQNDYSYPYTFGQGTKLEIKGGGSGGGGEVQLVESGGGLVQPGGSLRLSCAASGFTFSTYAMNWVRQAPGKGLEWVGRIRSKYNNYATYYADSVKDRFTISRDDSKNSLYLQMNSLKTEDTAVYYCVRHENFGNSYVSWFAYWGQGTLVTVSSGGCGGGKVAALKEKVAALKEKVAALKEKVAALKE chain 2: QAVVTQEPSLTVSPGGTVTLTCRSSTGAVTTSNYANWVQQKPGQAPRGLIGGTNKRAPWTPARFSGSLLGGKAALTITGAQAEDEADYYCALWYSNLWVFGGGTKLTVLGGGGSGGGGEVQLVQSGAELKKPGASVKVSCKASGYTFTDYYMKWVRQAPGQGLEWIGDIIPSNGATFYNQKFKGRVTITVDKSTSTAYMELSSLRSEDTAVYYCARSHLLRASWFAYWGQGTLVTVSSGGCGGGEVAALEKEVAALEKEVAALEKEVAALEK | 38.4% | 29.4%
28.8 nM | 3.5 | 1.4 | 4.9 | 0.0201 s⁻¹ | 699000 M⁻¹ s⁻¹ | 0.162 ng/mL | 0.011 ng/mL | 2.1 | 3.9 | DART-A-M6 (bispecific antibody) chain 1: DFVMTQSPDSLAVSLGERVTMSCKSSQSLLNSGNQKNYLTWYQQKPGQPPKLLIYWASTRESGVPDRFSGSGSGTDFTLTISSLQAEDVAVYYCQNDYSYPYTFGQGTKLEIKGGGSGGGGEVQLVESGGGLVQPGGSLRLSCAASGFTFSTYAMNWVRQAPGKGLEWVGRIRSKYNNYATYYADSVKDRFTISRDDSKNSLYLQMNSLKTEDTAVYYCVRHGNFGNSQVSWFAYWGQGTLVTVSSGGCGGGKVAALKEKVAALKEKVAALKEKVAALKE chain 2: QAVVTQEPSLTVSPGGTVTLTCRSSTGAVTTSNYANWVQQKPGQAPRGLIGGTNKRAPWTPARFSGSLLGGKAALTITGAQAEDEADYYCALWYSNLWVFGGGTKLTVLGGGGSGGGGEVQLVQSGAELKKPGASVKVSCKASGYTFTDYYMKWVRQAPGQGLEWIGDIIPSNGATFYNQKFKGRVTITVDKSTSTAYMELSSLRSEDTAVYYCARSHLLRASWFAYWGQGTLVTVSSGGCGGGEVAALEKEVAALEKEVAALEKEVAALEK | 41.9% | 29.5%
3.33 nM | 0.4 | 4.3 | 1.8 | 0.00716 s⁻¹ | 2.15e+06 M⁻¹ s⁻¹ | 0.075 ng/mL | 0.001 ng/mL | 1 | 0.4 | DART-A-M9 (bispecific antibody) chain 1: DFVMTQSPDSLAVSLGERVTMSCKSSQSLLNSGNQKNYLTWYQQKPGQPPKLLIYWASTRESGVPDRFSGSGSGTDFTLTISSLQAEDVAVYYCQNDYSYPYTFGQGTKLEIKGGGSGGGGEVQLVESGGGLVQPGGSLRLSCAASGFTFSTYAMNWVRQAPGKGLEWVGRIRSKYNNYATYYADSVKDRFTISRDDSKNSLYLQMNSLKTEDTAVYYCVRHKNFGNSYVSWFAYWGQGTLVTVSSGGCGGGKVAALKEKVAALKEKVAALKEKVAALKE chain 2: QAVVTQEPSLTVSPGGTVTLTCRSSTGAVTTSNYANWVQQKPGQAPRGLIGGTNKRAPWTPARFSGSLLGGKAALTITGAQAEDEADYYCALWYSNLWVFGGGTKLTVLGGGGSGGGGEVQLVQSGAELKKPGASVKVSCKASGYTFTDYYMKWVRQAPGQGLEWIGDIIPSNGATFYNQKFKGRVTITVDKSTSTAYMELSSLRSEDTAVYYCARSHLLRASWFAYWGQGTLVTVSSGGCGGGEVAALEKEVAALEKEVAALEKEVAALEK | 38.2% | 30.5%
18.5 nM | 2.3 | 0.9 | 2 | 0.0083 s⁻¹ | 449000 M⁻¹ s⁻¹ | 0.108 ng/mL | 0.006 ng/mL | 1.4 | 2.3 | DART-A-M3 (bispecific antibody) chain 1: DFVMTQSPDSLAVSLGERVTMSCKSSQSLLNSGNQKNYLTWYQQKPGQPPKLLIYWASTRESGVPDRFSGSGSGTDFTLTISSLQAEDVAVYYCQNDYSYPYTFGQGTKLEIKGGGSGGGGEVQLVESGGGLVQPGGSLRLSCAASGFTFSTYAMNWVRQAPGKGLEWVGRIRSKYNNYATYYADSVKDRFTISRDDSKNSLYLQMNSLKTEDTAVYYCVRHGNFINSYVSWFAYWGQGTLVTVSSGGCGGGKVAALKEKVAALKEKVAALKEKVAALKE chain 2: QAVVTQEPSLTVSPGGTVTLTCRSSTGAVTTSNYANWVQQKPGQAPRGLIGGTNKRAPWTPARFSGSLLGGKAALTITGAQAEDEADYYCALWYSNLWVFGGGTKLTVLGGGGSGGGGEVQLVQSGAELKKPGASVKVSCKASGYTFTDYYMKWVRQAPGQGLEWIGDIIPSNGATFYNQKFKGRVTITVDKSTSTAYMELSSLRSEDTAVYYCARSHLLRASWFAYWGQGTLVTVSSGGCGGGEVAALEKEVAALEKEVAALEKEVAALEK | 39.7% | 28.6%
6.6 nM | 0.8 | 4.7 | 3.8 | 0.0156 s⁻¹ | 2.37e+06 M⁻¹ s⁻¹ | 0.072 ng/mL | 0.01 ng/mL | 0.9 | 3.5 | DART-A-M22 (bispecific antibody) chain 1: DFVMTQSPDSLAVSLGERVTMSCKSSQSLLNSGNQKNYLTWYQQKPGQPPKLLIYWASTRESGVPDRFSGSGSGTDFTLTISSLQAEDVAVYYCQNDYSYPYTFGQGTKLEIKGGGSGGGGEVQLVESGGGLVQPGGSLRLSCAASGFTFSTYAMNWVRQAPGKGLEWVGRIRSKYNNYATYYADSVKDRFTISRDDSKNSLYLQMNSLKTEDTAVYYCVRHKNFGNSYVSYFAYWGQGTLVTVSSGGCGGGKVAALKEKVAALKEKVAALKEKVAALKE chain 2: QAVVTQEPSLTVSPGGTVTLTCRSSTGAVTTSNYANWVQQKPGQAPRGLIGGTNKRAPWTPARFSGSLLGGKAALTITGAQAEDEADYYCALWYSNLWVFGGGTKLTVLGGGGSGGGGEVQLVQSGAELKKPGASVKVSCKASGYTFTDYYMKWVRQAPGQGLEWIGDIIPSNGATFYNQKFKGRVTITVDKSTSTAYMELSSLRSEDTAVYYCARSHLLRASWFAYWGQGTLVTVSSGGCGGGEVAALEKEVAALEKEVAALEKEVAALEK | 38.3% | 31.6%
